Test results reported in patent publication US20240010684A1 (Bayer, published 2024).
One block for each binder: values may come before it. *1 amine or outer side, *2 acyl side, *3 side chain or, on linkers, in order; H or OH if unused. Bridges are numbered along the chain shown (N, C = ends). Where no end group is shown, it is not given here. [ ]: non-standard residue; d: D form. Oic = O=C(O)[C@@H]1C[C@@H]2CCCC[C@@H]2N1; Adipoyl = O=C(CCCCC(=O)[*:2])[*:1]; Trx = NC[C@H]1CC[C@H](C(=O)O)CC1; tBuAla = CC(C)(C)C[C@H](N)C(=O)O; Pen = CC(C)(S)[C@H](N)C(=O)O; 4Amb = NCc1ccc(C(=O)O)cc1; NMeC = CN[C@@H](CS)C(=O)O; Orn = NCCC[C@H](N)C(=O)O; Dab = NCC[C@H](N)C(=O)O; Abu = CC[C@H](N)C(=O)O; Dap = NC[C@H](N)C(=O)O; Ahx = NCCCCCC(=O)O; GABA = NCCCC(=O)O; Sar = CNCC(=O)O

Experiments:
Test in all cases: cell-based or functional assay
[1] = target: recombinant human MASP2 (amino acids 297-686, C-terminal His Tag) (human, UniProt O00187 297-686)
[2] = target: T1, recombinant human MASP1 (amino acids 297-699, C-terminal His Tag) (human, UniProt P48740 297-699)
T1 sequence: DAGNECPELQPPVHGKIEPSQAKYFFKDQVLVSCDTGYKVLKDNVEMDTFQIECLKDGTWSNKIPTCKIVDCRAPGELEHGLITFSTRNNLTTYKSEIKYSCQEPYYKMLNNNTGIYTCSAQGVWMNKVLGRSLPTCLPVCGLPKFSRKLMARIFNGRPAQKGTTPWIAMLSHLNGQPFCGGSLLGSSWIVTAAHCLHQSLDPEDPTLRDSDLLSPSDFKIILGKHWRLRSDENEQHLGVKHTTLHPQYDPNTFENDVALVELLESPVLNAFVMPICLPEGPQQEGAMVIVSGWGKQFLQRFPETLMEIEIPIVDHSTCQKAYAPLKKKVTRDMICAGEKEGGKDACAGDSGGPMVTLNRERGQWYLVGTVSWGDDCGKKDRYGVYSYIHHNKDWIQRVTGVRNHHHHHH

[3] = target: recombinant rat MASP2 (amino acids 296-685, C-terminal His Tag) (rat, UniProt Q9JJS8 296-685)
[4] = target: T2, recombinant rat MASP1 (amino acids 302-704, C-terminal His Tag) (rat, UniProt Q8CHN8 302-704)
T2 sequence: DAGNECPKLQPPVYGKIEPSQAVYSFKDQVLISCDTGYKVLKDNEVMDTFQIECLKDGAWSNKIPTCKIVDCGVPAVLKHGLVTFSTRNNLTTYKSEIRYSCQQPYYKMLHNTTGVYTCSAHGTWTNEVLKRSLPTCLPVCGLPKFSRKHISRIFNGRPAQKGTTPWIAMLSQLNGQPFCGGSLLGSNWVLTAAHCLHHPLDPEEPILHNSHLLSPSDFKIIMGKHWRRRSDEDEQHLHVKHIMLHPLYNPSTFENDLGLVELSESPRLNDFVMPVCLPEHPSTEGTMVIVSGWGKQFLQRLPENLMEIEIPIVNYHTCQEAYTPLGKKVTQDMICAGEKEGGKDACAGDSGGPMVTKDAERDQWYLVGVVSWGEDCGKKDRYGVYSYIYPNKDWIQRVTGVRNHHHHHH

Sequence of recombinant rat MASP2 (amino acids 296-685, C-terminal His Tag) (Q9JJS8 other isoform, or with tags, fused parts or gaps limits assumed): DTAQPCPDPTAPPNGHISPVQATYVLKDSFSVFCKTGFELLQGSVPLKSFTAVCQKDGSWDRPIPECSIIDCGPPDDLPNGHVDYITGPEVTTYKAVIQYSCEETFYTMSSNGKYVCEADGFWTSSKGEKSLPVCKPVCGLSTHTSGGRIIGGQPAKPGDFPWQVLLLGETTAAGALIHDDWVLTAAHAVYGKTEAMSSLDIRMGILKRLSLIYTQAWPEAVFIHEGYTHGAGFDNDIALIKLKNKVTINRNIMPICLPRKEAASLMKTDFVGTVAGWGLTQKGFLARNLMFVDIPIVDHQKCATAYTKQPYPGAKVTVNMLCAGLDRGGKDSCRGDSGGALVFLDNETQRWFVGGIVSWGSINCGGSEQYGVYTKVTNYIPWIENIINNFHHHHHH
Sequence of recombinant human MASP2 (amino acids 297-686, C-terminal His Tag) (O00187 other isoform, or with tags, fused parts or gaps limits assumed): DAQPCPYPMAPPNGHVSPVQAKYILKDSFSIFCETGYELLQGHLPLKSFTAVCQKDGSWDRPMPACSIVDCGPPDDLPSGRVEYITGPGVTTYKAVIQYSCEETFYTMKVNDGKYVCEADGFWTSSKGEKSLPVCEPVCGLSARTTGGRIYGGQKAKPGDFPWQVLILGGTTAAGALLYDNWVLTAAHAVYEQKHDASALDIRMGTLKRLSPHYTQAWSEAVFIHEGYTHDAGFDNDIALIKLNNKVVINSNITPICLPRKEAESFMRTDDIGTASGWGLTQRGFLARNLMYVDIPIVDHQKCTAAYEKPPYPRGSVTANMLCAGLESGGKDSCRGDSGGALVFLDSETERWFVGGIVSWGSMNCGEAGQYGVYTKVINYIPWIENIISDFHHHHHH

human MASP2 IC50 [1]: 91 nM | human MASP1 IC50 [2]: 5.7 nM | rat MASP2 IC50 [3]: 64 nM | rat MASP1 IC50 [4]: 290 nM
Binder: cyclo([Dap][Dap]ICSRSLP[Oic]I[Pen]IP) (disulfide 4-12; also: TFA salt) [Example 89: (Dap)**-(Dap)-IC+SRSLP-(Oic)-I-(Pen)+-IP**]

human MASP2 IC50 [1]: 17 nM | human MASP1 IC50 [2]: 6.3 nM
Binder: cyclo([Ahx]ICSRS[tBuAla]PPI[Pen]IP) (disulfide 3-11; also: TFA salt) [Example 51: (Ahx)**-IC+SRS-((tBu)A)-PPI-(Pen)+-IP**]

human MASP2 IC50 [1]: 48 nM | human MASP1 IC50 [2]: 6.3 nM | rat MASP2 IC50 [3]: 14 nM | rat MASP1 IC50 [4]: 85 nM
Binder: cyclo([Ahx]AICSRS[tBuAla]PPI[Pen]I) (disulfide 4-12; also: TFA salt) [Example 72: (Ahx)**-AIC+SRS-((tBu)A)-PPI-(Pen)+-I**]

human MASP2 IC50 [1]: 5.4 nM | human MASP1 IC50 [2]: 58 nM | rat MASP2 IC50 [3]: 13 nM | rat MASP1 IC50 [4]: 330 nM
B1: Example 60: (Adipic acid)**-IC+SRS-((tBu)A)-PPI-(Pen)+-IPD-(Dap)++-NH2 (peptide)
peptide: Adipoyl-ICSRS[tBuAla]PPI[Pen]IPD[Dap]-NH2
modifications: lactam (positions not given here); disulfide 2-10; not fully specified (bridges); also: TFA salt

human MASP2 IC50 [1]: 900 nM | human MASP1 IC50 [2]: 46 nM
Binder: cyclo([Dap]ICSRS[tBuAla]PPI[Pen]IP) (disulfide 3-11; also: TFA salt) [Example 55: (Dap)**-IC+SRS-((tBu)A)-PPI-(Pen)+-IP**]

human MASP2 IC50 [1]: 5.7 nM | human MASP1 IC50 [2]: 11 nM | rat MASP1 IC50 [4]: 48.6 nM
Binder: cyclo([Ahx][Trx]ICSRS[tBuAla]PPI[Pen]IP) (disulfide 4-12; also: TFA salt) [Example 59: (Ahx)**-(TXA)-IC+SRS-((tBu)A)-PPI-(Pen)+-IP**]

human MASP2 IC50 [1]: 2.57 nM | human MASP1 IC50 [2]: 6.1 nM | rat MASP2 IC50 [3]: 2.97 nM | rat MASP1 IC50 [4]: 30.8 nM
Binder: cyclo([Ahx][4Amb]ICSRS[tBuAla]PPI[Pen]IP) (disulfide 4-12; also: TFA salt) [Example 68: (Ahx)**-(4-(Aminomethyl)benzoic acid)-IC+SRS-((tBu)A)-PPI-(Pen)+-IP**]

human MASP2 IC50 [1]: 14 nM | human MASP1 IC50 [2]: 7.2 nM | rat MASP2 IC50 [3]: 1.4 nM | rat MASP1 IC50 [4]: 27 nM
Binder: [Ahx]ICSRSLP[Oic]I[Pen]IPE-NH2 (disulfide 3-11; lactam N-14; also: TFA salt) [Example 75: (Ahx)**-IC+SRSLP-(Oic)-I-(Pen)+-IPE++-NH2]

human MASP2 IC50 [1]: 1100 nM | human MASP1 IC50 [2]: 86 nM
Binder: cyclo([Dab]ICSRS[tBuAla]PPI[Pen]IP) (disulfide 3-11; also: TFA salt) [Example 56: (Dab)**-IC+SRS-((tBu)A)-PPI-(Pen)+-IP**]

human MASP2 IC50 [1]: 340 nM | human MASP1 IC50 [2]: 46 nM
Binder: cyclo([Dap][Dap]ICSRS[tBuAla]PPI[Pen]I) (disulfide 4-12; also: TFA salt) [Example 57: (Dap)**-(Dap)-IC+SRS-((tBu)A)-PPI-(Pen)+-I**]

human MASP2 IC50 [1]: 9.3 nM | human MASP1 IC50 [2]: 7.9 nM | rat MASP2 IC50 [3]: 11.6 nM | rat MASP1 IC50 [4]: 79 nM
Binder: cyclo([Ahx]ICSRS[tBuAla]PPI[Pen]I) (disulfide 3-11; also: TFA salt) [Example 52: (Ahx)**-IC+SRS-((tBu)A)-PPI-(Pen)+-I**]

human MASP2 IC50 [1]: 45 nM | human MASP1 IC50 [2]: 35 nM | rat MASP2 IC50 [3]: 68 nM | rat MASP1 IC50 [4]: 410 nM
Binder: EGICSRSLP[Oic]I[Pen]IPD[Dap]-NH2 (lactam 1-16; disulfide 4-12; also: TFA salt) [Example 93: E++GIC+SRSLP-(Oic)-I-(Pen)+-IPD-(Dap)++-NH2]

human MASP2 IC50 [1]: 77 nM | human MASP1 IC50 [2]: 8.4 nM | rat MASP2 IC50 [3]: 41 nM | rat MASP1 IC50 [4]: 170 nM
Binder: cyclo(AGGICSRSLP[Oic]I[Pen]IPD) (disulfide 5-13; also: TFA salt) [Example 92: A**GGIC+SRSLP-(Oic)-I-(Pen)+-IPD**]

human MASP2 IC50 [1]: 160 nM | human MASP1 IC50 [2]: 19 nM | rat MASP1 IC50 [4]: 170 nM
Binder: cyclo(AGGICSRSLP[Oic]I[Pen]IP[dD]) (disulfide 5-13; also: TFA salt) [Example 98: A**GGIC+SRSLP-(Oic)-I-(Pen)+-IPd**]

human MASP2 IC50 [1]: 83.5 nM | human MASP1 IC50 [2]: 6.75 nM | rat MASP2 IC50 [3]: 19 nM | rat MASP1 IC50 [4]: 96 nM
Binder: cyclo([Ahx]AICSRS[tBuAla]PPI[Pen]IP) (disulfide 4-12; also: TFA salt) [Example 53: (Ahx)**-AIC+SRS-((tBu)A)-PPI-(Pen)+-IP**]

human MASP2 IC50 [1]: 210 nM | human MASP1 IC50 [2]: 13 nM
Binder: CAICSRS[tBuAla]PPI[Pen]IPDC-NH2 (disulfide 1-16, 4-12; also: TFA salt) [Example 50: C++AIC+SRS-((tBu)A)-PPI-(Pen)+-IPDC++-NH2]

human MASP2 IC50 [1]: 12 nM | human MASP1 IC50 [2]: 9.4 nM | rat MASP2 IC50 [3]: 13 nM | rat MASP1 IC50 [4]: 157 nM
Binder: cyclo([Ahx][Sar]ICSRS[tBuAla]PPI[Pen]I) (disulfide 4-12; also: TFA salt) [Example 64: (Ahx)**-((N-Me)G)-IC+SRS-((tBu)A)-PPI-(Pen)+-I**]

human MASP2 IC50 [1]: 140 nM | human MASP1 IC50 [2]: 19 nM
Binder: [Ahx]GICSRSLP[Oic]I[Pen]IPD-NH2 (disulfide 4-12; lactam N-15; also: TFA salt) [Example 49: (Ahx)**-GIC+SRSLP-(Oic)-I-(Pen)+-IPD++-NH2]

More lines, now with the values behind:

Binder: cyclo([Ahx][Abu]ICSRS[tBuAla]PPI[Pen]IPD) (disulfide 4-12; also: TFA salt) [Example 38: (Ahx)**-(Abu)-IC+SRS-((tBu)A)-PPI-(Pen)+-IPD**]
human MASP2 IC50 [1]: 44 nM | human MASP1 IC50 [2]: 20 nM

Binder: cyclo([Ahx]AICSRSLPPICIPD) (disulfide 4-12; also: TFA salt) [Example 45: (Ahx)**-AIC+SRSLPPIC+IPD**]
human MASP2 IC50 [1]: 74 nM | human MASP1 IC50 [2]: 92 nM

Binder: [Ahx]AICSRSLP[Oic]I[Pen]IPD-NH2 (disulfide 4-12; lactam N-15; also: TFA salt) [Example 43: (Ahx)**AIC+SRSLP-(Oic)-I-(Pen)+-IPD++-NH2]
human MASP2 IC50 [1]: 120 nM | human MASP1 IC50 [2]: 6.7 nM

Binder: cyclo([Ahx]GICSRS[tBuAla]PPI[Pen]IPD) (disulfide 4-12; also: TFA salt) [Example 28: (Ahx)**-GIC+SRS-((tBu)A)-PPI-(Pen)+-IPD**]
human MASP2 IC50 [1]: 29 nM | human MASP1 IC50 [2]: 19 nM | rat MASP2 IC50 [3]: 16 nM | rat MASP1 IC50 [4]: 79 nM

Binder: [Orn]AICSRS[tBuAla]PPI[NMeC]IPD-NH2 (lactam 1-15; disulfide 4-12; also: TFA salt) [Example 44: (Orn)++-AIC+SRS-((tBu)A)-PPI-((N-Me)C)+-IPD++-NH2]
human MASP2 IC50 [1]: 230 nM | human MASP1 IC50 [2]: 4.7 nM

Binder: cyclo(AGGICSRS[tBuAla]PPI[Pen]IP[dD]) (disulfide 5-13; also: TFA salt) [Example 39: A**GGIC+SRS-((tBu)A)-PPI-(Pen)+-IPd**]
human MASP2 IC50 [1]: 75 nM | human MASP1 IC50 [2]: 6 nM | rat MASP2 IC50 [3]: 8 nM | rat MASP1 IC50 [4]: 44 nM

Binder: cyclo([Ahx]AICSRS[tBuAla]PPICIPD) (disulfide 4-12; also: TFA salt) [Example 46: (Ahx)**-AIC+SRS-((tBu)A)-PPIC+IPD**]
human MASP2 IC50 [1]: 89 nM | human MASP1 IC50 [2]: 56 nM

Binder: AGAICSRSLP[Oic]I[Pen]IPD-NH2 (disulfide 5-13; lactam N-16; also: TFA salt) [Example 41: A**GAIC+SRSLP-(Oic)-I-(Pen)+-IPD++-NH2]
human MASP2 IC50 [1]: 190 nM | human MASP1 IC50 [2]: 5.9 nM

Binder: [Ahx]GICSRS[tBuAla]PPI[Pen]IPD-NH2 (disulfide 4-12; lactam N-15; also: TFA salt) [Example 48: (Ahx)**-GIC+SRS-((tBu)A)-PPI-(Pen)+-IPD++-NH2]
human MASP2 IC50 [1]: 70 nM | human MASP1 IC50 [2]: 10 nM

Binder: AGGICSRSLP[Oic]I[Pen]IPD-NH2 (disulfide 5-13; lactam N-16; also: TFA salt) [Example 42: A**GGIC+SRSLP-(Oic)-I-(Pen)+-IPD++-NH2]
human MASP2 IC50 [1]: 200 nM | human MASP1 IC50 [2]: 13 nM

Binder: cyclo([Ahx]GICSRSLPPICIPD) (disulfide 4-12; also: TFA salt) [Example 13: (Ahx)**-GIC+SRSLPPIC+IPD**]
human MASP2 IC50 [1]: 130 nM | human MASP1 IC50 [2]: 140 nM

Binder: cyclo([GABA]ICSRS[tBuAla]PPI[Pen]IPD) (disulfide 3-11; also: TFA salt) [Example 35: (Gamma-Abu)**-IC+SRS-((tBu)A)-PPI-(Pen)+-IPD**]
human MASP1 IC50 [2]: 4.1 nM | rat MASP2 IC50 [3]: 24 nM | rat MASP1 IC50 [4]: 63 nM
